This is an account of results in patent publication US11124779B2, “Compositions and methods for treating and preventing pancreatitis, renal injury and cancer” (Yale University, priority 2014, dated 2021).

The experiment concerns the target PMCA (Homo sapiens, UniProt P23634). Put plainly: Ca2+ efflux through PMCA, time lapse confocal microscopy, HK2 cells. The experiment is classed as cell-based. The procedure: FIGS. 12A-12F, depict the results of experiments showing renalase increases Ca^2+ efflux through PCMA. Changes in whole cell cytosolic Ca^2+ were recorded with the Ca^2+ dye Fluo-4 (HK2 cells) or Fluo-5 (acinar cell) by time lapse confocal microscopy. FIGS. 12A, 12B, 12D, and 12E are representative plots of fluorescence over time in HK2 cells (FIGS. 12A and 12B) or mouse acinar cells (FIGS. 12D and 12E). Cells were pretreated with 30 μM cyclopiazonic acid and perfused with Ca^2+-free medium. Cells were briefly stimulated with 10 nM angiotensin IV (Ang in HK2 cells) or 100 nM cerulein (Cer in acinar cells) in the presence of 1.3 mM Ca^2+. […] For FIGS. 12C and 12F, the rate of Ca^2+ efflux was quantified from 30 cells/treatment group. *p<0.05 vs. no renalase. […]
PMCA selectively binds renalase (FIG. 6). […] Since the protective effects of renalase were first characterized in HK-2 cells (human kidney cell line) (Lee et al., 2013, J Am Soc Nephrol 24, 445-455; Wang et al., 2014, Journal of the American Society of Nephrology: JASN), its effects on Ca^2+ signals were evaluated in these cells and subsequently in mouse acinar cells (FIG. 12). […] Perfusion buffer was then switched back to Ca^2+-free medium in the presence or absence of renalase, and cytosolic Ca^2+ levels were monitored over time and the rates of Ca^2+ efflux were calculated (FIG. 12). […]

PMCA, sequence (P23634 1-1205 isoform P23634-6): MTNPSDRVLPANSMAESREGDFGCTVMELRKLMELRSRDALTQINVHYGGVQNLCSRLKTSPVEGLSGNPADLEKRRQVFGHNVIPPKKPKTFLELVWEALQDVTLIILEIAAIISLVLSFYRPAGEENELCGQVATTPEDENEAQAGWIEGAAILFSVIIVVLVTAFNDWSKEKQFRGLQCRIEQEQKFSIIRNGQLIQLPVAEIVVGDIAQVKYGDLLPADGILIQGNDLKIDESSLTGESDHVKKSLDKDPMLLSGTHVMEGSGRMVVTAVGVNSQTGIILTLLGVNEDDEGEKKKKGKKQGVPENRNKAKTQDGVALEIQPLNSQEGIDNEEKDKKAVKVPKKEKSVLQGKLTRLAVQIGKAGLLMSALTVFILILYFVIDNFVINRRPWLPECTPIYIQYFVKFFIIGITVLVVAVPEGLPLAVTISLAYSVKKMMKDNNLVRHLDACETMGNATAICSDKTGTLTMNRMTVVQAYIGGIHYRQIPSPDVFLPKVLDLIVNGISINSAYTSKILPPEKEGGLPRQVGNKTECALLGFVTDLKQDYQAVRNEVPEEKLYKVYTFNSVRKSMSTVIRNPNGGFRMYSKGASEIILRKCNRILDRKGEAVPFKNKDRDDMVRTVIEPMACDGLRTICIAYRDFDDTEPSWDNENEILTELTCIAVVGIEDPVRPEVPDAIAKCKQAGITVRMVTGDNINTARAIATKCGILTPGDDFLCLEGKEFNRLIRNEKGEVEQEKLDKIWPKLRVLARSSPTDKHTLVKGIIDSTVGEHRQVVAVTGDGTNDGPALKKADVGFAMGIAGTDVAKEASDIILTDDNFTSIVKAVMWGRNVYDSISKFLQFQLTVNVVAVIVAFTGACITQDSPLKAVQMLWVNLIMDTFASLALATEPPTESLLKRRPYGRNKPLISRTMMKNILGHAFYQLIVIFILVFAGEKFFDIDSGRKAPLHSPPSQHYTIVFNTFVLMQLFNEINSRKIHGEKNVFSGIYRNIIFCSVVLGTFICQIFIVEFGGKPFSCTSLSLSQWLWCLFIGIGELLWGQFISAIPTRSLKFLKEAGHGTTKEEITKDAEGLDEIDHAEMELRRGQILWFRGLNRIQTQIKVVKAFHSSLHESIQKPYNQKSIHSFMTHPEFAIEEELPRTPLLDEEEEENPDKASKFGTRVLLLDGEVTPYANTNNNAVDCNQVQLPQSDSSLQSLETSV

B1: recombinant renalase: recombinant full-length human renalase, secretory flavoprotein oxidase; synthesized as in Desir et al., 2012; SEQ ID NO: 8 or 9 (protein)
chain: ALLRRQTSGPLYLAVWDKAEDSGGRMTTACSPHNPQCTADLGAQYITCTPHYAKKHQRFYDELLAYGVLRPLSSPIEGMVMKEGDCNFVAPQGISSIIKHYLKESGAEVYFRHRVTQINLRDDKWEVSKQTGSPEQFDLIVLTMPVPEILQLQGDITTLISECQRQQLEAVSYSSRYALGLFYEAGTKIDVPWAGQYITSNPCIRFVSIDNKKRNIESSEIGPSLVIHTTVPFGVTYLEHSIEDVQELVFQQLENILPGLPQPIATKCQKWRHSQVTNAAANCPGQMTLHHKPFLACGGDGFTQSNFDGCITSALCVLEALKNYI
In the case of B1, the “baseline Ca2+ levels” value is reported as “did not change”. Also, the “rate of Ca2+ efflux” value (10 nM angiotensin IV, Ca2+-free and Na+-free medium, cyclopiazonic acid) is given as “increased”.
